Test results reported in patent publication US20120121583A1 (Genentech, published 2012).

T1: Human recombinant soluble TWEAK (human, UniProt O43508 99-249)
T1 sequence: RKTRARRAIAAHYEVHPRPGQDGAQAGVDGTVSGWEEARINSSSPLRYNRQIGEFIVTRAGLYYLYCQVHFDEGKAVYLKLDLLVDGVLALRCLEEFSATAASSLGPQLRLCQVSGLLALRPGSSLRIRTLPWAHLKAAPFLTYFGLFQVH

T2: human Flag-tagged soluble TWEAK (amino acids 106-249) (human, UniProt O43508 106-249)
T2 construct: N-terminal placement here is only an order of listing; not shown: Flag tag
T2 sequence: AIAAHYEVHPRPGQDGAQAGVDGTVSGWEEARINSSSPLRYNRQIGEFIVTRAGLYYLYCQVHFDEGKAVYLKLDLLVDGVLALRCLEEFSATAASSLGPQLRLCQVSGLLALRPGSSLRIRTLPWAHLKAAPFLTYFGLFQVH

T3: Biotinylated human soluble TWEAK (amino acids 99-249 of SEQ ID NO: 60) (human, UniProt O43508 99-249, biotinylated (sites not given))
T3 construct: Immobilised on the streptavidin sensor in the Biacore half-life assay; also called Human TWEAK; soluble human TWEAK
T3 sequence: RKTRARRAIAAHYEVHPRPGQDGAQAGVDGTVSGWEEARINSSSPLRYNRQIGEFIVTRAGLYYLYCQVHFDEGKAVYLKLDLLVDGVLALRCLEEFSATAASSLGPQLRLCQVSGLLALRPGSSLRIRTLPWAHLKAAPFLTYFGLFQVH


Key:
[1] = biological target: T1, Human recombinant soluble TWEAK; assay: cell-based or functional assay
[2] = biological target: T2, human Flag-tagged soluble TWEAK (amino …); assay: competition ELISA: antibody pre-incubated with human Flag-TWEAK 2.5 ng/ml, binding to coated human Fn14:Fc
Protocol: (§1) 96-well Maxisorp® plates (Nunc) were coated with 100 μl 1 μg/ml human Fn14:Fc (extracellular domain of human Fn14 (amino acids 1-75) fused to Fc portion of human IgG1) in PBS per well for 1.5 h at room temperature and blocked with a solution of 5% FBS in PBS for 30 minutes at room temperature under shaking. […] Wells were filled with 100 μl of anti-FLAG-HRP detection antibody, diluted 1:5000 in blocking buffer, and incubated for 1 h at room temperature. After four more wash steps, the signal was developed by addition of 100 μl 3,3,5,5-Tetramethylbenzidine (TMB) solution for approximately ten minutes. The reaction was stopped by adding 100 μl of 1 N HCl, and absorbance measured at 450 nm (reference wavelength 620 nm).

[3] = biological target: T1, Human recombinant soluble TWEAK; assay: cell-based or functional assay; remark: listed apart in the source
[4] = biological target: Biotinylated murine soluble TWEAK (amino acids 81-225 of SEQ ID NO: 61) (murine) (UniProt O54907); assay: Biacore SPR, biotinylated murine soluble TWEAK on SA sensor, antibody as analyte, 25 C
[5] = biological target: Biotinylated murine soluble TWEAK (amino acids 81-225 of SEQ ID NO: 61) (murine) (UniProt O54907); assay: Biacore SPR, biotinylated murine soluble TWEAK on SA sensor, antibody as analyte, 37 C
[6] = biological target: T3, Biotinylated human soluble TWEAK (amino …); assay: Biacore SPR, biotinylated human soluble TWEAK on SA sensor, antibody as analyte, 25 C
Protocol: A Biacore 2000 instrument was used with a Biacore streptavidin coated sensor mounted into the system. The system buffer HBS-ET (10 mM HEPES pH 7.4, 150 mM NaCl, 1 mM EDTA, 0.05% Tween® 20) was used at a flow rate of 100 μl/min. The sample buffer was the system buffer. Biotinylated human soluble TWEAK (amino acids 99-249 of SEQ ID NO: 60) and biotinylated murine soluble TWEAK (amino acids 81-225 of SEQ ID NO: 61) was immobilized on different flow cells on the SA sensor at 150 RU each. The flow cell FC1 was used as a blank reference cell. Each antibody was injected into the system as an analyte at 100 nM at 100 μl/min for 2 min association time. The dissociation of the immune complexes were monitored for 5 min. The sensor surface was washed with HBS-ET for 10 seconds and regenerated using 2×2 minutes injections with 10 mM glycine pH 2.25. This procedure was done at 25° C. The kinetically rate limiting step of the complex dissociation phase in the interval [240 s-300 s] was taken to calculate the dissociation rate kd [1/s] (Biacore Evaluation Software 4.0). According to the equation t1/2 diss=ln(2)/(60×kd), the half-life of the immunocomplexes in minutes was calculated.

[7] = biological target: T3, Biotinylated human soluble TWEAK (amino …); assay: Biacore SPR, biotinylated human soluble TWEAK on SA sensor, antibody as analyte, 37 C
[8] = biological target: Mouse soluble TWEAK (mouse) (UniProt O54907); assay: competition ELISA: antibody pre-incubated with mouse soluble TWEAK, binding to coated mouse Fn14:Fc
[9] = biological target: T2, human Flag-tagged soluble TWEAK (amino …); assay: competition ELISA: antibody pre-incubated with human Flag-TWEAK, binding to coated human Fn14:Fc
Protocol: as §1

Row | Binder | IL-8 Secretion IC50 [1] [ng/mL] | IC50 [2] [ng/mL] | IL8-Secretion [3] [ng/mL] | t/2 diss [4] [min] | t/2 diss [5] [min] | t/2 diss [6] [min] | t/2 diss [7] [min] | IC50 [8] [ng/mL] | IC50 [9] [ng/mL]
1 | TW-305 (antibody, V domains shown, also called Antibody 305; rabbit antibody 305) VH: QEQLVESGGGLVQPGGSLTLSCKASGFDFSTYYMSWVRQAPGKGLEWIGTVYVRQGTTYYASWLNGRFTISSDNAQNTVDLKMNSLTAADTATYFCAKGGYNYDDAFVIWGPGTLVTVSF VL: AIEMTQTPFSVSAAVGGTVTINCQASQNIYSNLAWYQQKPGQPPKLLMYTASYLASGVPSRFKGSGSRTEYTLTISGVQCADAATYYCQTAYYNSRPDTVAFGGGTEVVVK | 99 | 2.5 |  |  |  |  |  |  | 
2 | Antibody 27 (antibody, V domains shown, also called humanized 305 variant 305-LC2 / 305-HC4) VH: QVQLVQSGAEVKKPGSSVKVSCKASGFDFSTYYMSWVRQAPGQGLEWMGTVYVRQGTTYYASWLNGRVTITADESTSTAYMELSSLRSEDTAVYYCARGGYNYDDAFVIWGQGTLVTVSS VL: DIQMTQSPSSVSASVGDRVTITCQASQNIYSNLAWYQQKPGKAPKLLIYTASYLASGVPSRFSGSGSGTDYTLTISSLQPEDFATYYCQTAYYNSRPDTVAFGGGTKVEIK |  |  | 197 | 19 | 19 | 110 | 147 | 8.2 | 2.3
3 | Antibody 28 (antibody, V domains shown, Humanized variant of antibody 305; also called humanized 305 variant 305-LC2 / 305-HC7) VH: EVQLLESGGGLVQPGGSLTLSCAASGFDFSTYYMSWVRQAPGKGLEWVSTVYVRQGTTYYASWLNGRFTISRDNSKNTLYLQMNSLRAEDTAVYYCAKGGYNYDDAFVIWGQGTLVTVSS VL: DIQMTQSPSSVSASVGDRVTITCQASQNIYSNLAWYQQKPGKAPKLLIYTASYLASGVPSRFSGSGSGTDYTLTISSLQPEDFATYYCQTAYYNSRPDTVAFGGGTKVEIK |  |  | 165 | 19 | 17 | 87 | 115 | 6.5 | 1.5
4 | Antibody 29 (antibody, V domains shown, Humanized variant of antibody 305; also called humanized 305 variant 305-LC2 / 305-HC8) VH: EVQLLESGGGLVQPGGSLRLSCAASGFDFSTYYMSWVRQAPGKGLEWVSTVYVRQGTTYYASWLNGRFTISRDNSKNTLDLQMNSLRAEDTAVYYCAKGGYNYDDAFVIWGQGTLVTVSS VL: DIQMTQSPSSVSASVGDRVTITCQASQNIYSNLAWYQQKPGKAPKLLIYTASYLASGVPSRFSGSGSGTDYTLTISSLQPEDFATYYCQTAYYNSRPDTVAFGGGTKVEIK |  |  | 78 | 22 | 21 | 146 | 195 | 5.7 | 1.8
5 | Antibody 30 (antibody, V domains shown, Humanized variant of antibody 305; also called humanized 305 variant 305-LC1 / 305-HC10) VH: EVQLLESGGGLVQPGGSLRLSCAASGFDFSTYYMSWVRQAPGKGLEWVSTVYVRQGTTYYASWLNGRFTISRDNSKNTLYLQMNSLTAEDTAVYYCAKGGYNYDDAFVIWGQGTLVTVSS VL: DIQMTQSPSSVSASVGDRVTITCQASQNIYSNLAWYQQKPGKAPKLLIYTASYLASGVPSRFSGSGSGTDFTLTISSLQPEDFATYYCQTAYYNSRPDTVAFGGGTKVEIK |  |  | 207 | 17 | 15 | 50 | 45 | 7.6 | 2.3
6 | Antibody 32 (antibody, V domains shown, Humanized variant of antibody 305; also called humanized 305 variant 305-LC6 / 305-HC8) VH: EVQLLESGGGLVQPGGSLRLSCAASGFDFSTYYMSWVRQAPGKGLEWVSTVYVRQGTTYYASWLNGRFTISRDNSKNTLDLQMNSLRAEDTAVYYCAKGGYNYDDAFVIWGQGTLVTVSS VL: DIQMTQSPSTLSASVGDRVTITCQASQNIYSNLAWYQQKPGKAPKLLIYTASYLASGVPSRFSGSGSGTEFTLTISSLQPDDFATYYCQTAYYNSRPDTVAFGGGTKVEIK |  |  | 134 | 17 | 20 | 67 | 50 | 5.4 | 1.5
7 | Antibody 31 (antibody, V domains shown, Humanized variant of antibody 305; also called humanized 305 variant 305-LC4 / 305-HC7) VH: EVQLLESGGGLVQPGGSLTLSCAASGFDFSTYYMSWVRQAPGKGLEWVSTVYVRQGTTYYASWLNGRFTISRDNSKNTLYLQMNSLRAEDTAVYYCAKGGYNYDDAFVIWGQGTLVTVSS VL: AIRMTQSPSSFSASTGDRVTITCQASQNIYSNLAWYQQKPGKAPKLLIYTASYLASGVPSRFSGSGSGTDYTLTISCLQSEDFATYYCQTAYYNSRPDTVAFGGGTKVEIK |  |  | 94 | 19 | 19 | 115 | 151 | 7.1 | 1.7
8 | Antibody 34 (antibody, V domains shown, Humanized variant of antibody 305; also called humanized 305 variant 305-LC4 / 305-HC2) VH: EVQLLESGGGLVQPGGSLRLSCAASGFDFSTYYMSWVRQAPGKGLEWVSTVYVRQGTTYYASWLNGRFTISRDNSKNTLYLQMNSLRAEDTAVYYCAKGGYNYDDAFVIWGQGTLVTVSS VL: AIRMTQSPSSFSASTGDRVTITCQASQNIYSNLAWYQQKPGKAPKLLIYTASYLASGVPSRFSGSGSGTDYTLTISCLQSEDFATYYCQTAYYNSRPDTVAFGGGTKVEIK |  |  | 24 | 22 | 20 | 158 | 185 | 5.9 | 1.9
9 | Antibody 33 (antibody, V domains shown, Humanized variant of antibody 305; also called humanized 305 variant 305-LC4 / 305-HC4) VH: QVQLVQSGAEVKKPGSSVKVSCKASGFDFSTYYMSWVRQAPGQGLEWMGTVYVRQGTTYYASWLNGRVTITADESTSTAYMELSSLRSEDTAVYYCARGGYNYDDAFVIWGQGTLVTVSS VL: AIRMTQSPSSFSASTGDRVTITCQASQNIYSNLAWYQQKPGKAPKLLIYTASYLASGVPSRFSGSGSGTDYTLTISCLQSEDFATYYCQTAYYNSRPDTVAFGGGTKVEIK |  |  | 26 | 19 | 15 | 127 | 99 | 6.7 | 1.7
10 | TW-304 (antibody, V domains shown, also called Antibody 304; rabbit antibody 304) VH: QSLEESGGDLVKPGASLTLTCKASGFSFSSTYYMCWVRQAPGKGLEWIGCIYVGSSGAPYYASWAKGRFTISKTSSTTVALQMTSLTPADTATYVCTRSVHFGDLWGPGTLVTVSS VL: DVVMTQTPSPVSAAVGGTVTIKCQASQSIGNDLSWYQQKPGQRPKLLIYSVSTLASGVPSRFKGSGSGTEYSLTISDVQCADAATYYCQCIDYGNNYVGNTFGGGTEVVVK | 109 | 2.8 |  |  |  |  |  |  | 
